Experiment: yeast display, Sf9 membrane polyspecificity reagent, FACS + sequencing; frameworks hold sequencing errors
How it was run: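 Sorting gates, low and high (top ~1%), were placed on anti-HA fluorescence to track expression and on streptavidin fluorescence to track reagent binding. A clone's polyreactivity label is taken from the gate it came out of. The reagent was 10% biotinylated, detergent-solubilized Sf9 membrane, applied for 1 hour at 4 °C to galactose-induced yeast display cells.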

Sequence: QVQLVESVGGLVQAGGSLRLSCAASGSTFGYNAMGWYRHAPGKEMELVAAITRSSSRTYYADYVKGRFTISRDNAKNTVYLQMNSLKPEDTAVYYCAKVRYVVGSIFNYSYNYWGQGTQVTVSS
- polyreactivity (PSR sort gate): high polyreactivity

Sequence: QVQLVESVGGLVQAGGSLRLSCAASGSTFKGYYMGWYRQAPGKERELVAAIDSGGSTYYADSVKGRFTISRDNAKNTVYLQMNSLNPVDTAVYYCAATGQDTYGLDVVDEYDYWGQGTKVTVSS
- polyreactivity (PSR sort gate): low polyreactivity

Sequence: QVQLVESVGGLVQAGGSLRLSCAASGSTFYIYAMGWYRQAPGKERELVADINNSDSTYYADSVKGRFTISRDNAKITVYLQMYSLKPEDTAVYYCAAYDYYIGAYSYGGSDYDYWGQGTQVTVSS
- polyreactivity (PSR sort gate): low polyreactivity

Sequence: QVQLVESVGGLVQAGGSLRLSCAASGSTLDGNPMGWYRQAPGKERELVAAISRSGTSTYYADSVKGRFTISRDNAKNTVYLQMNSLKPEDTAVYYCNKVGYIAFDYWGQGTQVTVSS
- polyreactivity (PSR sort gate): low polyreactivity

Sequence: QVQLVESVGGLVQAGGSLRLSCAASVRTFYNYSMGWYRQAPGKERELVAGISRRGGSTYYADSVKGRFTISRDNAKNTVYLQMNSLKPEDTAVYYCIEDLVRPGYYRYDYRGQGTQVTVSS
- polyreactivity (PSR sort gate): high polyreactivity

Sequence: QVQLVESVGGLVQAGGSLRLSCAASVYAMGWYRPAPGKERELVAAITDSGSTNYADSVKGRFTISRDNAKNTVYLQMNSLKPEDNAVYYCNADPYYATGSWARLPLYQYDYWGPGTQVTVSS
- polyreactivity (PSR sort gate): low polyreactivity

Sequence: QVQLVESVGGLVQAGGSLRLSCAASYAMAWYRQAPGKERELVATITRTDRTNYADSVKGRFTISRDNAMNTVYFQMNSLKPEDTAVYDCNKVEWSAPGDSRKYGYWGQGTQVTVSS
- polyreactivity (PSR sort gate): low polyreactivity

Sequence: QVQLVESVGGLVQAGGSLRLSCAATGRIFHYNAMGWYRQAPGKERELVAAITSSGGTTYYADSVKGRFTISRDIAKNTVYLQMNTLKPEDTAVYYCNAVTSARVNYRGQGTQVTVSS
- polyreactivity (PSR sort gate): high polyreactivity

Sequence: QVQLVESVGGLVQAGGSLRLSCAATGSIFSYYAMGWYRQAPGKERELVAAISVSGGRTYYADSVNGRFTISRDNAKNTVYLQMNSLKPEDTAVYYCATRIRSYYYWGQGTQVTVSS
- polyreactivity (PSR sort gate): high polyreactivity

Sequence: QVQLVESVGGLVQAGGSLRLSCAAYGRTFAPNAMLWYRQAPGKESELVAAISWSGTSTYYADSVKGRFTISRDNSKNTVYLQMYSLKPEDTAFYDCAADMEGRVGSPWTYDYWGQGTQVTVSS
- polyreactivity (PSR sort gate): low polyreactivity

Sequence: QVQLVESVGGLVQAGGSLRLSCAGSGRIFRNYAMGWYRQAPGKERELVAAISDSSGSTYYADSVKGRFTISRDNAKNTVYLQMNILKPEHTAVYFCRYYFGSGYYYWGQGTQVTVSS
- polyreactivity (PSR sort gate): high polyreactivity

Sequence: QVQLVESVGGLVQAGGSLRLSCASSGITFWYYAMGWYRQAPGKERELVAAISYSGDSTYYADSVKGRFTISRDNAKNTVYLQMNSLKPEDTAVYYCAARTRAGAWTSKYHDYWGQGTQGTVSS
- polyreactivity (PSR sort gate): high polyreactivity

Sequence: QVQLVESVGGLVQAGGSLRLSCASSGYIFAYYGMGWYRQAPGNERELVAAISWSGGSTDYADSVKGRFTISRDNAKNTGYLQMNRLKPEDTAVYYCATRKYADRESDYWGQVTQVTVSS
- polyreactivity (PSR sort gate): high polyreactivity

Sequence: QVQLVESVGGLVQAGGSLRLSCPASGFIFSGHTMGWYRQAPGKERELVAAITSGGGRTYYADSVKGRFTISRDNAKNTVYLQMNSLKPEDTAVYYCNTAFVYEYDYWGQGTQVTVSS
- polyreactivity (PSR sort gate): high polyreactivity

Sequence: QVQLVESVGGLVQAGGSLRLSCSASGSTFTGYAMGWYRQARGNEREFVATITKRGGRTYYADSVKGRFTISRDNAKNTVYLQMNSLKPEDSAVYYCARDQGKLFVPYDYWGKGTQVTVSS
- polyreactivity (PSR sort gate): high polyreactivity

Sequence: QVQLVESVGGLVQAGGSLRLSCSASGTFRRNVKGWYRQAPGKERELVAAIRSGGSTYYADSVKGRFTISRDNAKHTVFLQMNSLKPEDTAVYYCASDRPGHSFYDEWYRYDSWGQGTQVTVSS
- polyreactivity (PSR sort gate): low polyreactivity

Sequence: QVQLVESVGGLVQAGGSLRLSGAASGSTFGRYAMGWSRQAPGKEREFVANISWSDGSTNYADSVKGRFTISRDHAKNTVYFQMNSLKPEDTAVYYCATGLGYTAFGKEVYDWHDYWGQGTQVTVSS
- polyreactivity (PSR sort gate): low polyreactivity

Sequence: QVQLVESVGGLVQAGGSLRLSSDASGRTFYSNAMGWYREAPGKERELVAGMNIGGGSTYYADSVKGRFTISRDNAKNTVYLQMYSLIPEATAVYYCAALRWGAYRHGYWGQGTQVTVSW
- polyreactivity (PSR sort gate): high polyreactivity

Sequence: QVQLVESVGGLVQAGGSLRLTCAACGVTFSYNTMGWYRQAPGKERELVAAISRSGGRTYYADSVKGRFTISRDNAKNTVYLQMNSLKPEDTAVYYCARYSVTGFGANSGPEMDYWGHGTQVTVSS
- polyreactivity (PSR sort gate): high polyreactivity

Sequence: QVQLVESVGGLVQAGGSLRLTCAASVITQRFNSMGWYRQAPGKEMELVAAISSGTNTYYADSVKGRFAISRDNAKNTVYLQMNSLKPEDTAVYYCADTLGYYTSGRSYQRYDYWGHGTQVTVSS
- polyreactivity (PSR sort gate): low polyreactivity

Sequence: QVQLVESVGGLVQAGGSLRLTCAASVSIIRYNAMGWYRQAPGKERELVAAITKGAGSTYYADSVKGRFTISRDNAKNTVYLQMNSLKPEDTAVYYCAAAGGTSRRTIYTAFYYWGQGTQVTVSS
- polyreactivity (PSR sort gate): high polyreactivity

Sequence: QVQLVESVGGLVQAGGSLSLSCAASGRIFVWYTMGWYRQAPGKEREFVASINGGGNTNYADSVKGRFTISRDNAKNTVYLQMNSLKPEDTADYYCAREYFGEMDYWGHGTQVTVSS
- polyreactivity (PSR sort gate): low polyreactivity

Sequence: QVQLVESVGGLVQAGGSLSLSSAASGRTFGNYAMGWYRQAPGKERELVADITRRGGSTSYADSVKGRFTISRDNAKNTVYLQMTSLKTEDTAVYYCNKAAEGSSHYDYWGLGTQVTVSS
- polyreactivity (PSR sort gate): low polyreactivity

Sequence: QVQLVESVGGLVQAGGTLRLSCAATEGTIRSNAMGWYRQAPGKESELVAAISRGGSTYYADSVKGRFTISRDNAKNTVYLQMNSLKPEDTAVYYCNVAYYRSGHDNDYWGQGTQVTVSS
- polyreactivity (PSR sort gate): high polyreactivity

Sequence: QVQLVESVGGLVQAGVSLRLSSPATGSTIYFYAMGWYRQEPGKERELVAAISGSGGRKYYADSVKGRFTISRDNAKNTVYLQMNSLKPEDTAVYYCAAEWFPYSEREFLYYYWGQGTQVTVSS
- polyreactivity (PSR sort gate): high polyreactivity

Sequence: QVQLVESVGGLVQAVGSLRLSCAASGNTFYRYAMGWYIQAPGKERELVAAITWRSTYYADSVKGRFTISRDNAKNTVYLQMNSLKPEDTAVYYCAVSVRPYVIYLYDYWGQGTQVTVSS
- polyreactivity (PSR sort gate): high polyreactivity

Sequence: QVQLVESVGGLVQEGGSLRLSCAASGSIRYAMGRYRQAPGKERELDAAISGRGGNTYYADSVKGSFTISRDNAKNTVYLQMNSLKPEDTAVYYCATRGNRVLTGTRYDYWGQGTQITVSS
- polyreactivity (PSR sort gate): high polyreactivity

Sequence: QVQLVESVGGVVQAGGSLRLSCAASGFTFKYYDMGWYRQAPGKERELVAAISRRGGSTSYADSVKGRFTISRDNAKNTVYLQMNSLKPEDTAVYYCAADSSFERSSDYWGHGTQVTVSS
- polyreactivity (PSR sort gate): high polyreactivity

Sequence: QVQLVESVGSLVQAGVSLRLSCAASGFILYANAMGWYRQAPGKERELGAAISRGTSTYYADSVKGRFTISRDNAKNTVYLQMTSLKPEDTAVYYCATSSYRPWGGYYWGQGTQVTVSS
- polyreactivity (PSR sort gate): high polyreactivity

Sequence: QVQLVESVGVLDQAGGSLRLSCAASGFTFVRYAMGWYRQAPGKERELVAAISGSGGRTYYADSVKGRFTISRDTAKNTVYLQLNSLKPEDTAVYYCAAVYLVTRGARYEYWGQGTQVTVSS
- polyreactivity (PSR sort gate): high polyreactivity

Sequence: QVQLVESVGVLVQAGGSLRLSCAASGRTFYRNAVGWYRQAPGKERELVAAISRSGTRTYYADSVKGRFTISRDNATNTVYLQMNSLKPEDTAVYYCNALRVDGGDYWGQGTQVTVSS
- polyreactivity (PSR sort gate): high polyreactivity

Sequence: QVQLVESVRGLVQAGGSLRLSCAASGSTFDNNAMGWYRQAPGKEREFVAAITYSGGGSTSYADSVKGRFTISRDNAKNTVYLQMNSLKPEDPAVYDCAAREFETDGYSLVAYNYWGQGTQVTVSS
- polyreactivity (PSR sort gate): low polyreactivity

Sequence: QVQLVESVRGSVQAGGSLRLSCAASGSTFYENAMGWYRPAPGKVRELVAAITWSGGRTYYADSVKGRFTISRDNAKNTVYLQMYSLKAEDTAVYYCNARARSRKFYYWGQGTQVTVSS
- polyreactivity (PSR sort gate): high polyreactivity

Sequence: QVQLVESVVGLVQAGGSLRLSCAASGSTFLPYTMGWYRQAPGKETELVAGISGSGPRTYYADSVKGRFTISRDNAKNTVYLQMNSLKPEDTAVYYCAKKSSYRYGYWGQGTQVTVSS
- polyreactivity (PSR sort gate): high polyreactivity

Sequence: QVQLVESWAGLVQAGGSLRLSCAASGRTFAYNAMGGYRQAPGSERELVAAITWSGDSTYYADSVKGRFTISRDNAKKTVYLQMNSQKPEDTAVNYCAAGLVFHYYAPKSYYLGYDYWGQGTQVTVSS
- polyreactivity (PSR sort gate): low polyreactivity

Sequence: QVQLVESWGCLVQAGGSLRLSCAASGFTFESNAMGWYRQAPGKERELVAAITSSGGRTYYADSVKGRFTISRVNAKNTVYLQMNSLNPEDSAVYYCAATGKAPRESGGVYSMDWGQGTQVTVSS
- polyreactivity (PSR sort gate): low polyreactivity

Sequence: QVQLVESWGCLVQAGGSLRLSCAASRSTFLSYAMGWDRQAPGKERELVAAISWSGGRTYYADSVKGRFTISRDHAKNTVYLQMNSLKPDDSAVYYCNAGQGYRAPLYNLYDYWGQGTQVTVSS
- polyreactivity (PSR sort gate): low polyreactivity

Sequence: QVQLVESWGGLDQAGGSLRLSCAASGIIFQYYAMGWYRQAPGKERELVAAISWSGGSTYYADSVKGRFTISRDNAKNTVYLQMNSLKPEDTAVYYCAARSRSYWPYEGDYWGQGSQVTVSS
- polyreactivity (PSR sort gate): low polyreactivity

Sequence: QVQLVESWGGLDQAGGSLRLSCAASGRTIRRYAMGCYRQAPGKERELVASISTSGGSTNADSVKGRFTISRDNSKNTVYLQMNSLKPEDTAVYYCAVRYPRYVRNGDYWGQGTQVTVSS
- polyreactivity (PSR sort gate): high polyreactivity

Sequence: QVQLVESWGGLVHAGGSLPLSCADSGITFFYYAMGWYRQAPGKEREFVAAISTSGGRTYYADSVKGRFTISRDNAKNTVYLQMNSLKPEDTAVYYCAARSRVPPAGPRYDYWGQGTQVTVSS
- polyreactivity (PSR sort gate): high polyreactivity

Sequence: QVQLVESWGGLVQAGCSLRLSCAPSGSIFRTNAMGWYREAPGKQRELLAAITGSGGSTNYADSVKGRFTISRDNAKNTVYLQMNSLKPEDTADYYCAAEFGSLLSPYNYYYWGQGTQVTVSS
- polyreactivity (PSR sort gate): low polyreactivity

Sequence: QVQLVESWGGLVQAGGNLRLSCAASGFIFTRYAMGWYRPAPGTERELVAAISTSGDRTYYADSVKGRFTISRDNAKNTVYLQMNSLKPEDTAVYYCAVVRPRSVVRYDYWGQGTQVTVSS
- polyreactivity (PSR sort gate): high polyreactivity

Sequence: QVQLVESWGGLVQAGGRLRLSCAASGIIFHRNAMGWYRQAPGKQRELVAAISERGGSTYYADSVKGRFTISRDNAKNTVYLQMNSLKPEDTAVYYCIADGFYRGGYWGQGTQVTVSS
- polyreactivity (PSR sort gate): low polyreactivity
